Assay results published in the supplement of paper PMC10065799, “High-throughput profiling of sequence recognition by tyrosine kinases and SH2 domains using bacterial peptide display” (eLife, 2023).

Columns and labels:
AncSZ = test: phosphorylation enrichment, bacterial display (enrichment ratio); higher = better substrate or ligand; peptides without Tyr show the background
EPHB1 = EPHB1 (UniProt P54762); test: as above
EPHB2 = EPHB2 (UniProt P29323); test: as above
FGFR1 = FGFR1 (UniProt P11362); test: as above
FGFR1, sequence (P11362 whole entry, looked up): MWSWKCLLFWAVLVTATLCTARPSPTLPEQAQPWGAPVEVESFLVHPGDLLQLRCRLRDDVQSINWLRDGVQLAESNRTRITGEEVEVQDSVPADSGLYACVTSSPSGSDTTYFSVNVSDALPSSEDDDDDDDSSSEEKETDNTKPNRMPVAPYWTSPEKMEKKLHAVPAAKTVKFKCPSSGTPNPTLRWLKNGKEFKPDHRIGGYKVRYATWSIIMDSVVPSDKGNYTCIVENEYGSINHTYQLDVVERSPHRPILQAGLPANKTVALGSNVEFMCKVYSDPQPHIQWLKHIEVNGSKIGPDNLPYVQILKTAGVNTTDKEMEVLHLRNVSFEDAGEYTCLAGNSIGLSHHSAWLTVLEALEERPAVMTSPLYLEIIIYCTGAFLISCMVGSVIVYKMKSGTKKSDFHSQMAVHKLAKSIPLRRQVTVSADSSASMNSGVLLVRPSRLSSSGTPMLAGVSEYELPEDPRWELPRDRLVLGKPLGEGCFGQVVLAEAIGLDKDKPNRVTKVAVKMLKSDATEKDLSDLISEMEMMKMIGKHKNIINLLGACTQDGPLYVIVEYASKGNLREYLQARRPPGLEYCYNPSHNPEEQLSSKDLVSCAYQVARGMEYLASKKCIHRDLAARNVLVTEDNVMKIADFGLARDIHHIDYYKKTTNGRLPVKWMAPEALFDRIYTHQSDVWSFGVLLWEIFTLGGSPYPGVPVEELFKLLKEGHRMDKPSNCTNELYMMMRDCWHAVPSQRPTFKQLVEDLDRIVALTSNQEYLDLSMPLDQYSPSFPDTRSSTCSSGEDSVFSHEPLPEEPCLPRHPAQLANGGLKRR

FGFR3 = FGFR3 (UniProt P22607); test: as above
FGFR3, sequence (P22607 whole entry, looked up): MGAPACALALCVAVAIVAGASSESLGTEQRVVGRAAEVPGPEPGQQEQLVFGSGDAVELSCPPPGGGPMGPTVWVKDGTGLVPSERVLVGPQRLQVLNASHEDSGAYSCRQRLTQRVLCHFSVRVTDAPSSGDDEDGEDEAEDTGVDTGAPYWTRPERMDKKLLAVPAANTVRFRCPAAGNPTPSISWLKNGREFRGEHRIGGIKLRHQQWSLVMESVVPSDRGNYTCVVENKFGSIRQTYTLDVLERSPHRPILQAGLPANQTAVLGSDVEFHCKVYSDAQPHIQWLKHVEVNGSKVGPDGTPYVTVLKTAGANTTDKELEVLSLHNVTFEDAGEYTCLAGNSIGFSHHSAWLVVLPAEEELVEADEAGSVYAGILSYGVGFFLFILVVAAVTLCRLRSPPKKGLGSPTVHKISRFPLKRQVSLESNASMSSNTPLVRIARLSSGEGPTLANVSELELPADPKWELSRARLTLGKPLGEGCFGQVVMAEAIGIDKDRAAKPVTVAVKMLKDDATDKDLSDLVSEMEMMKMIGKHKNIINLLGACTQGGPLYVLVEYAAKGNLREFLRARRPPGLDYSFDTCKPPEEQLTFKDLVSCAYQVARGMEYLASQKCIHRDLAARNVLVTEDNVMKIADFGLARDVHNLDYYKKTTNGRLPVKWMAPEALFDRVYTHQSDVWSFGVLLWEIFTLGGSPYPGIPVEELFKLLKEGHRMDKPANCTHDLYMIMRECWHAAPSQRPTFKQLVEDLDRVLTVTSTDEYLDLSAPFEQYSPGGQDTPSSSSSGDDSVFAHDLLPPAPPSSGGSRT

Fer (mouse) = test: as above
Fes = Fes (UniProt P07332); test: as above
Fes, sequence (P07332 whole entry, looked up): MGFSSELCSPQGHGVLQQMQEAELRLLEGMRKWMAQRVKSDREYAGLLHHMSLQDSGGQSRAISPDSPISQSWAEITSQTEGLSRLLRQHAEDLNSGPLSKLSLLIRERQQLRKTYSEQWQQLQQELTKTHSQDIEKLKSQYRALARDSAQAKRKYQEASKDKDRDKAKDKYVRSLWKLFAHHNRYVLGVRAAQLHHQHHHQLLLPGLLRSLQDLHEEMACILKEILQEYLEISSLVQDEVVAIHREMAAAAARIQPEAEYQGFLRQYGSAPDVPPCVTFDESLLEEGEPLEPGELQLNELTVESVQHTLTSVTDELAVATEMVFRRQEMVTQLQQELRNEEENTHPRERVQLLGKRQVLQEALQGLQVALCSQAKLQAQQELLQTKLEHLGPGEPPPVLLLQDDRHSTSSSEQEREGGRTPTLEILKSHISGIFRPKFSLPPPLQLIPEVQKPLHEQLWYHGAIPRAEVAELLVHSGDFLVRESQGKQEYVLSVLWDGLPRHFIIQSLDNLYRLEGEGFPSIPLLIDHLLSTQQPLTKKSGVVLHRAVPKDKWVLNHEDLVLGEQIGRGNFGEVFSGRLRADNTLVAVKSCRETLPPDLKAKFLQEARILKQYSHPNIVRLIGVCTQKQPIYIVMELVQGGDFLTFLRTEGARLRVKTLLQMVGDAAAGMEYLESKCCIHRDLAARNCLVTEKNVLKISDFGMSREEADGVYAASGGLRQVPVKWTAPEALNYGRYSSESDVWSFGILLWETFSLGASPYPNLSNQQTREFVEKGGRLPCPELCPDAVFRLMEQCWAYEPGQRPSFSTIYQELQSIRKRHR

Fyn = Fyn (UniProt P06241); test: as above
Fyn, sequence (P06241 whole entry, looked up): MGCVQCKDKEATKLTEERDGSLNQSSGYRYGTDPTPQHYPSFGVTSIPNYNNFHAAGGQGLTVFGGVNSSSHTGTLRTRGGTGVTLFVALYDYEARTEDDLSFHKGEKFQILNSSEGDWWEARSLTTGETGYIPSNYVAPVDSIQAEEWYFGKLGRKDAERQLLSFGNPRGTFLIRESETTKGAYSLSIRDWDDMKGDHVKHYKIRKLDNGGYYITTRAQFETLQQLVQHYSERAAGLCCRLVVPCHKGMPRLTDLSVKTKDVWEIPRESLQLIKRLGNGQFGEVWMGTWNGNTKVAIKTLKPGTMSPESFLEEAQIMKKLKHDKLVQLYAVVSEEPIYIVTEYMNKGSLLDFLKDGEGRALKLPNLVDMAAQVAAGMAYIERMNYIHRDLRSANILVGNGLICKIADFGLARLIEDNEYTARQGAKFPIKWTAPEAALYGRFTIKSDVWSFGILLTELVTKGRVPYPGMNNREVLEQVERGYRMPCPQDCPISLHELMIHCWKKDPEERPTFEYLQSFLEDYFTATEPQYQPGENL

Hck = Hck (UniProt P08631); test: as above
Hck, sequence (P08631 whole entry, looked up): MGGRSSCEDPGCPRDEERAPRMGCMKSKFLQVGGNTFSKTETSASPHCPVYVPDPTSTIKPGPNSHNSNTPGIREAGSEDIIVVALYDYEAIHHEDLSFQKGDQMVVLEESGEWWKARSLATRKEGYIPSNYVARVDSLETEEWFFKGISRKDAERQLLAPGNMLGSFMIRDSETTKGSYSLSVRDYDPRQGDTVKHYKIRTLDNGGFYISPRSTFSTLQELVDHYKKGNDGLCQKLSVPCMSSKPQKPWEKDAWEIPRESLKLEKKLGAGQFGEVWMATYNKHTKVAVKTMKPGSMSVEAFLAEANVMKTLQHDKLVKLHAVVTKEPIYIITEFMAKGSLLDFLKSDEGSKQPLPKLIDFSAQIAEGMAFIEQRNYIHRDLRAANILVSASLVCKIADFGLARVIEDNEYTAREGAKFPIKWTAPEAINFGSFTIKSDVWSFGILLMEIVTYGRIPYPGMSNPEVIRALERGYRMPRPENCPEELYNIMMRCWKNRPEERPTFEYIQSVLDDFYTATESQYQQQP

Jak2 = Jak2 (UniProt O60674); test: as above
MERTK = MERTK (UniProt Q12866); test: as above
c-Abl (mouse) = test: as above
c-Src = test: as above
Grb2 SH2 = Grb2 SH2 (UniProt P62993); test: SH2 binding enrichment of the phosphorylated peptide, bacterial display (enrichment ratio); higher = better substrate or ligand; peptides without Tyr show the background
SHP2-C SH2 = test: as above
c-Src SH2 = test: as above
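For SH2 binding enrichment of the phosphorylated peptide, bacterial display in this document: peptide library displayed on the E. coli surface as eCPX fusions, selected cells deep-sequenced, score is each peptide's frequency after selection divided by its frequency in the input.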
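For phosphorylation enrichment, bacterial display in this document: 11-residue human phosphosite peptides and single-mutation variants displayed on the E. coli surface, counted by deep sequencing, each peptide's frequency after selection divided by its frequency in the unselected input library; frequency after pTyr selection over input frequency; kinase dosed for 20-30% of maximal phosphorylation in three min.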

EPHB2, sequence (P29323 whole entry, looked up): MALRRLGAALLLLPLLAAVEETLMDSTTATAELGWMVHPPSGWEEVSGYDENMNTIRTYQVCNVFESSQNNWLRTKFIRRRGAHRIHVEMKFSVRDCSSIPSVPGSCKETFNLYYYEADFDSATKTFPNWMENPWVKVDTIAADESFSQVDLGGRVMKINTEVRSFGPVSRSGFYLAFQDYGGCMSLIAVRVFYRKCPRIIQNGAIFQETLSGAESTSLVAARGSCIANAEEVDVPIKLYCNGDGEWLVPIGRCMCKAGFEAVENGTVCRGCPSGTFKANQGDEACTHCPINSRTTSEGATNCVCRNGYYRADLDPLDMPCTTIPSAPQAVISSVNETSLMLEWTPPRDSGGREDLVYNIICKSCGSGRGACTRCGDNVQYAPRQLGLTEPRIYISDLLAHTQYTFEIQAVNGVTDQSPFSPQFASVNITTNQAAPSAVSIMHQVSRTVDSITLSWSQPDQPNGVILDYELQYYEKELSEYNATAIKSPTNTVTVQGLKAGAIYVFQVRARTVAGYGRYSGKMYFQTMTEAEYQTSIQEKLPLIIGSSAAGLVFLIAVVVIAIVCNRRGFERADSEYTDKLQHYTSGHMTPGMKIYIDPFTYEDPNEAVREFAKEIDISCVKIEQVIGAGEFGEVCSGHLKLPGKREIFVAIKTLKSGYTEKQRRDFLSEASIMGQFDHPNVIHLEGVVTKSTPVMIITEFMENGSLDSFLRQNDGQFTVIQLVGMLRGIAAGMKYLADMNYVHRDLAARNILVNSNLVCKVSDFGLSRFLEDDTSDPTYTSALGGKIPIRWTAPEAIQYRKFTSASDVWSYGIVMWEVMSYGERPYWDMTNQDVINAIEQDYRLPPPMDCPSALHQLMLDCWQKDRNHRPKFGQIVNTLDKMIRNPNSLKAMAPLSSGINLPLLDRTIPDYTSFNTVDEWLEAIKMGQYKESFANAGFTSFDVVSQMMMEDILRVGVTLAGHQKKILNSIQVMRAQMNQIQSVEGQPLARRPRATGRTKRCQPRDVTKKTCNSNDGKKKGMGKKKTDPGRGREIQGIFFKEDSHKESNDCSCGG

SH2 binding enrichment (Grb2 SH2) | SH2 binding enrichment (SHP2-C SH2) | SH2 binding enrichment (c-Src SH2) | Sequence | phosphorylation enrichment (AncSZ) | phosphorylation enrichment (EPHB1) | phosphorylation enrichment (EPHB2) | phosphorylation enrichment (FGFR1) | phosphorylation enrichment (FGFR3) | phosphorylation enrichment (Fer (mouse)) | phosphorylation enrichment (Fes) | phosphorylation enrichment (Fyn) | phosphorylation enrichment (Hck) | phosphorylation enrichment (Jak2) | phosphorylation enrichment (MERTK) | phosphorylation enrichment (c-Abl (mouse)) | phosphorylation enrichment (c-Src)
0.735 | 0.541 | 0.541 | KNAEKYAEEDW [HSPA9_Y568_R573W] | 1.32 | 0.667 | 0.727 | 0.763 | 0.776 | 0.487 | 1.56 | 0.533 | 0.52 | 1.21 | 0.533 | 0.895 | 0.51
0.734 | 0.886 | 0.803 | KNKNRYKNVLP [PTPN11_Y279_I282V] | 0.551 | 0.426 | 0.398 | 0.419 | 0.716 | 0.414 | 0.593 | 0.372 | 0.412 | 0.767 | 0.473 | 0.881 | 0.449
1.05 | 0.792 | 0.694 | KNNDGNIDYAE [MCFD2_Y135_Y135N] | 1.13 | 0.572 | 0.53 | 0.501 | 0.916 | 0.453 | 1.13 | 0.462 | 0.524 | 0.776 | 0.479 | 0.62 | 0.388
1.14 | 0.974 | 0.81 | KRFAFYRDSPR [FOXE3_Y108_E103K] | 0.538 | 0.327 | 0.387 | 0.443 | 0.479 | 0.421 | 0.643 | 0.446 | 0.387 | 0.482 | 0.437 | 0.526 | 0.414
1.95 | 1.99 | 1.68 | KRGIDYILRHM [FRMD1_Y225] | 0.792 | 0.494 | 0.463 | 0.457 | 0.592 | 0.415 | 0.872 | 0.414 | 0.396 | 0.654 | 0.396 | 0.567 | 0.387
0.903 | 0.827 | 0.398 | KTKIGYSPLHQ [ANK1_Y735_L733I] | 0.489 | 0.326 | 0.449 | 0.422 | 0.384 | 0.434 | 0.512 | 0.408 | 0.435 | 0.49 | 0.466 | 0.456 | 0.425
1.13 | 0.686 | 0.51 | KTVQDYLEKFY [MMP8_Y36] | 1.36 | 0.673 | 0.711 | 0.627 | 0.707 | 0.562 | 1.31 | 0.708 | 0.539 | 1.21 | 0.517 | 1.23 | 0.674
0.703 | 0.636 | 0.434 | KVALVYGQMNQ [ATP5F1B_Y269_E274Q] | 0.726 | 0.496 | 0.641 | 0.424 | 0.634 | 0.506 | 1.27 | 2.16 | 1.78 | 0.841 | 0.425 | 0.829 | 3.17
0.834 | 0.695 | 0.636 | KVNKIYYPDFI [LIG3_Y767] | 0.727 | 0.536 | 0.45 | 4.13 | 3.46 | 0.481 | 0.762 | 0.607 | 0.668 | 0.68 | 1.05 | 0.589 | 0.724
0.709 | 0.472 | 0.86 | KVVVPYEPPEV [TP53_Y220_S215K] | 0.921 | 0.452 | 0.573 | 0.442 | 0.632 | 0.38 | 0.866 | 0.458 | 0.406 | 1 | 0.402 | 1.02 | 0.408
1.06 | 0.878 | 0.716 | KWELRYMHSRV [ABCD1_Y281_G277W] | 1.09 | 0.517 | 0.528 | 0.393 | 0.685 | 0.457 | 1.31 | 0.458 | 0.474 | 1.07 | 0.369 | 0.759 | 0.37
0.713 | 0.592 | 0.325 | LAAPKYKLNVD [SMARCA2_Y1190_A1188P] | 0.46 | 0.205 | 0.307 | 0.258 | 0.518 | 0.291 | 0.961 | 0.546 | 0.551 | 0.353 | 0.346 | 0.422 | 0.44
0.674 | 0.679 | 0.476 | LAIERYVVVCK [RHO_Y136] | 1.83 | 0.938 | 1.09 | 0.766 | 1.21 | 1.32 | 2.33 | 0.597 | 0.862 | 1.9 | 0.732 | 1.51 | 0.859
1.12 | 0.708 | 0.512 | LAVPLYKNGVK [CPS1_Y1069] | 1.23 | 1.09 | 1.67 | 0.904 | 0.836 | 1.04 | 0.856 | 0.777 | 0.574 | 0.933 | 1.42 | 0.777 | 0.416
1.07 | 0.927 | 0.704 | LDCNEYFRDLN [HPRT1_Y198_Y195C] | 1.82 | 0.933 | 0.922 | 0.966 | 1.34 | 0.697 | 1.73 | 0.906 | 0.911 | 1.5 | 0.687 | 1.15 | 0.487
0.755 | 0.698 | 0.503 | LDVGEYCVPRG [BEX1_Y43_A40V] | 5.36 | 2.26 | 2.47 | 0.982 | 1.23 | 0.842 | 1.21 | 1.09 | 0.853 | 1.32 | 0.568 | 3.73 | 0.539
0.81 | 0.967 | 0.507 | LDYNEYFRNLN [HPRT1_Y198_D201N] | 2.08 | 0.559 | 0.751 | 0.596 | 0.844 | 0.48 | 1.14 | 0.49 | 0.69 | 1.79 | 0.382 | 0.849 | 0.657
1.18 | 0.516 | 0.446 | LEGAKYVSHGA [ASS1_Y113_R108L] | 0.835 | 0.682 | 1.03 | 1 | 1.17 | 0.928 | 1.14 | 0.973 | 0.606 | 0.696 | 0.551 | 0.852 | 0.605
0.957 | 1.18 | 0.731 | LEHCQYVTQKV [ALDOB_Y204_E207Q] | 1.01 | 0.818 | 0.924 | 0.656 | 0.763 | 0.648 | 1.04 | 0.47 | 0.507 | 1.03 | 0.401 | 0.727 | 0.617
0.791 | 0.866 | 0.399 | LERFIYNPEEF [HLA-DPB1_Y59_R61P_YF] | 2.02 | 0.738 | 0.708 | 0.934 | 1.71 | 0.927 | 1.75 | 1.75 | 1.33 | 1.32 | 0.618 | 1.09 | 2.4
0.9 | 0.818 | 0.704 | LFHENYNAGTY [CFI_Y421_I416L] | 1.06 | 0.521 | 0.626 | 0.78 | 0.633 | 0.822 | 1.1 | 0.605 | 0.527 | 0.976 | 0.537 | 1.22 | 1.3
1.43 | 0.7 | 1.51 | LFLALYTGLVH [PIGB_Y402] | 2.04 | 1.26 | 1.4 | 0.775 | 1.39 | 1.46 | 2.02 | 1.42 | 2.29 | 1.53 | 1.2 | 1.38 | 2.11
0.817 | 0.499 | 0.59 | LGPSDYFGETA [PRKAR1A_Y323_I327T] | 0.964 | 0.597 | 0.425 | 0.585 | 0.636 | 0.422 | 0.808 | 0.518 | 0.509 | 0.749 | 0.398 | 0.448 | 0.55
0.974 | 1.6 | 0.528 | LGSVVYAQSKE [KCNQ2_Y226_H228Q] | 1.61 | 1.86 | 0.97 | 0.852 | 1.39 | 0.99 | 1.31 | 1.08 | 1.29 | 1.19 | 1.1 | 1.24 | 1.08
1.01 | 0.827 | 0.684 | LKGQVYILGWE [ASS1_Y359_R363W] | 1.14 | 0.655 | 0.57 | 0.544 | 0.81 | 0.642 | 1.4 | 0.575 | 0.508 | 1.14 | 0.428 | 0.804 | 0.575
0.803 | 1.13 | 0.818 | LLANAYIYDVQ [L1CAM_Y418_V421D] | 1.17 | 1.46 | 1.56 | 0.391 | 0.616 | 0.802 | 1.27 | 6.7 | 4.13 | 1.22 | 2.71 | 0.538 | 3.69
1.38 | 1.3 | 1.23 | LLKAGYQGVLR [TTPA_Y100_H101Q] | 0.502 | 0.648 | 0.366 | 0.67 | 0.565 | 0.425 | 0.73 | 0.265 | 0.713 | 0.55 | 0.459 | 0.442 | 0.311
0.834 | 0.973 | 1.51 | LLKANYELLNA [POLR3A_Y714_K713N] | 0.975 | 1.28 | 0.804 | 0.457 | 0.78 | 0.551 | 0.865 | 0.431 | 0.459 | 0.857 | 0.976 | 0.949 | 0.814
1.03 | 1 | 0.621 | LMIKEYLTKEL [BAG3_Y457_E455K] | 0.867 | 0.524 | 0.612 | 0.437 | 0.72 | 0.491 | 1.36 | 0.469 | 0.571 | 0.896 | 0.411 | 0.666 | 0.353
